Series [1] concerns the target Volvox carteri f. nagarensis CaMKII hub domain (Volvox carteri f. nagarensis). In words: native MS.
Series [2] addresses Chlamydomonas reinhardtii CaMKII hub domain (Chlamydomonas reinhardtii). In words: crystal structure.
Series [3] has the same target. In words: native MS.
Series [4] deals with Gonium pectoral CaMKII hub domain (Gonium pectoral). Kind of series: native MS.
The series “native MS” deals with the molecule itself. Kind of series: native MS.
The series “crystal structure” deals with the molecule itself. In words: crystal structure.

Values joined by “and” are separate entries in the source; they are usually repeats but may differ in a detail not shown here. Equal values may be shown once.

As usually defined, the stoichiometry N is a count of units in the complex or per binding partner.

With “Volvox carteri f. nagarensis CaMKII hub domain (domain or fragment)”, in series [1], the stoichiometry N was 18 subunits and 20 subunits.
Take “Chlamydomonas reinhardtii CaMKII hub domain (domain or fragment)”: the stoichiometry N in series [2] and in series [3] was 18 subunits in each case.
Take “Gonium pectoral CaMKII hub domain (domain or fragment)”: the stoichiometry N in series [4] is 16 subunits and 18 subunits.

B1: wild-type human CaMKII-α hub domain (domain or fragment, UniProt Q9UQM7 345-475, looked up)
chain: VRKQEIIKVTEQLIEAISNGDFESYTKMCDPGMTAFEPEALGNLVEGLDFHRFYFENLWSRNSKPVHTTILNPHIHLMGDESACIAYIRITQYLDAGGIPRTAQSEETRVWHRRDGKWQIVHFHRSGAPSV
In the case of B1, the “stoichiometry N” value in “native MS” was 12 subunits and 14 subunits.

B2: six-mutant human CaMKII-α hub domain (domain or fragment, UniProt Q9UQM7 345-475, looked up)
chain: VRKQEIIKVNQQLIEAISNGDFESYTKMCDPGMTAFEPEALGNLVEGLDFHRFYFENLWSRNSKPVHNTMLNPHIHLMGDESACIAYIRITQYLDAGGIPRTAQSEETRVWHRRDGKWQHVHMHRSGAPSV
Regarding B2, the “stoichiometry N” value in the series “crystal structure” came out at 14 subunits; in “native MS” it was 16 subunits.

The values above are taken from publication doi:10.1101/536094 (bioRxiv, 2019).
